Our source for the Kd values is article PMC11323494, “A network of acetyl phosphate-dependent modification modulates c-di-AMP homeostasis in Actinobacteria” (mBio, 2024).

For the data set, the system named is DasR K78Q (Saccharopolyspora erythraea NRRL2338). Briefly: BLI. The note with it: BLI: 10 mM HEPES pH 8.0, 2 mM MgCl2, 0.1 mM EDTA, 200 mM KCl (running buffer + 10 µg/mL BSA, 0.02% Tween-20), SA sensor, temperature not stated; EMSA: 5 nM …. Background: A gel shift assay detects complexes by their altered migration in electrophoresis.

Broadly, the Kd is the equilibrium constant for the complex coming apart. As for disA promoter probe, the Kd worked out at 20 µM.
